Laboratory results published in patent US20230105029A1 (CHIA TAI TIANQING PHARMACEUTICAL GROUP, published 2023).
Changes are numbered by the printed parent chain.

T1: marmoset monkey IL4Rα-his protein (marmoset monkey)
T1 construct: Custom made by Sino biological; no cleavage site stated; also called cal-IL4Rα-his; Cal-IL4Rα
T1 chain: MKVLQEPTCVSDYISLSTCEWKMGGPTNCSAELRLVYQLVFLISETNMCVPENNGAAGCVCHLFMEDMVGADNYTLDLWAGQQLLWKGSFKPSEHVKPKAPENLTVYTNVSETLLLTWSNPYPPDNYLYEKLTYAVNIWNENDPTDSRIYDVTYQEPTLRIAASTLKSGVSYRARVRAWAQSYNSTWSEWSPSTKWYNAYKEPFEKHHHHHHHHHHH

B1: mouse antibody C2C1A1A1 (antibody, V domains shown)
VH: EVQLVESGGGLVQPGGSLKLSCAASGFTFSTYGMSWVRQTPDKRLELVATINSNGGSTSYPDSVKGRFTISRDNAKNTLYLQMSSLKSEDTAMFYCARFFRFRNAMDYWGQGTSVTVSS
VL: DIQMTQSPASLSASVGETVTITCRTSENIYSYLAWYQQKQGKSPQFLVYNAKTLAEGVPSRFSGSGSGTQFSLNINSLQSEDFGSYYCQHYYGPPTWTFGGGTKLEIK
notes: Mouse hybridoma mAb; also called Mouse C2C1A1A1
B2: mouse antibody B8G11F2B7G5E8 (antibody, V domains shown)
VH: EVQLQQSGADLVRPGASVKLSCTASGFNIKDTYMHWVKQRPEQGLEWVGRIDPTNGYTIYASKFQGKATITADTSSNTAYMQLSSLTSGDTAVYHCVSRRPWFAYWGQGTLVTVSA
VL: DILMTQTPLSLPVSLGAQASISCRSSQSIVHSNGNTYLEWYLQKPGQSPKLLIYKVTNRFSGVPDRFSGSGSGTDFTLKISRVEAEDLGIYYCFQGSHVPYTFGGGTKLEIK
notes: Mouse hybridoma mAb; also called Mouse B8G11F2B7G5E8; mAb B8G11F2B7G5E8
B3: chimeric antibody B8G11F2B7G5E8 (antibody, human IgG4 S228P, kappa, V domains shown)
VH: B2 VH
VL: DILMTQTPLSLPVSLGAQASISCRSSQSIVHSNGNTYLEWYLQKPGQSPKLLIYKVTNRFSGVPDRFSGSGSGTDFTLKISRVEAEDLGIYYCFQGSHVPYTFGGGTKLEIKR
notes: Mouse variable domains on human IgG4/kappa; also called Chimeric B8G11F2B7G5E8; chB8G11F2B7G5E8
B4: chimeric antibody C2C1A1A1 (antibody, human IgG4 S228P, kappa, V domains shown)
VH: B1 VH
VL: DIQMTQSPASLSASVGETVTITCRTSENIYSYLAWYQQKQGKSPQFLVYNAKTLAEGVPSRFSGSGSGTQFSLNINSLQSEDFGSYYCQHYYGPPTWTFGGGTKLEIKR
notes: Mouse variable domains on human IgG4/kappa; also called Chimeric C2C1A1A1; chC2C1A1A1
B5: mouse antibody B1D2F7D3B5 (antibody, V domains shown)
VH: EVKLVESGGGLVKPGGSLKLSCAASGFTFSSYAMSWVRQTPEKRLEWVASISSGDSTYYLDSVKGRFTISRDNAMNILYLQMSSLRSEDTAVYYCERSGGSAPYWGQGTLVSVSA
VL: QIVLTQSPAIMSASPGEMVTISCSASSSVSYMYWYQQKPGSSPKPWIYRTSNLASGVPARFSGSGSGTSYSLTISSMEAEDAATYYCQQYHSFPLTFGAGTKLELK
notes: Mouse hybridoma mAb
B6: mouse antibody B9D1D11F8D8 (antibody, V domains shown)
VH: B5 VH with M75R, M82V, V92M, S112T
VL: B5 VL with E17D, S30N
notes: Mouse hybridoma mAb
B7: mouse antibody C2B2F7B7 (antibody, V domains shown)
VH: B1 VH with S59N, F94Y, F102I
VL: B1 VL with T25A, N74K, S80P, P94T
notes: Mouse hybridoma mAb

Biological target: T2, human IL4Rα expressed on 293F-IL4Rα cells (human, UniProt P24394 26-825)
T2 construct: whole, on cells; also called cell surface human IL4Rα
Assay: flow cytometry, 293F-IL4Rα cells
Experimental: (§1) Then, 2×10⁵ cells per well in 96 well-plates were incubated in 100 μL of the anti-IL4Rα antibodies or controls of various concentrations (starting at 80 nM with a 4-fold serial dilution) in FACS buffer for 40 minutes on ice. […] Following an incubation of 40 minutes at 4° C. in dark, cells were washed three times and resuspended in FACS buffer. Fluorescence was measured using a Becton Dickinson FACS Canto II-HTS equipment. Data was analyzed using Graphpad Prism software and EC₅₀ values were reported.

B1 and B2 are within 1.5-fold of each other in EC50: 0.31 nM for the first, 0.41 nM for the second.

B3 and B4 are within 1.5-fold of each other in EC50: 0.78 nM for the first, 0.63 nM for the second.

Biological target: T1, marmoset monkey IL4Rα-his protein
Assay: indirect ELISA, coated cal-IL4Rα-his

B2 and B3 are within 1.5-fold of each other in EC50: 0.87 nM for the first, 1.01 nM for the second.

B4 showed an EC50 of 0.62 nM.

Biological target: T2, human IL4Rα expressed on 293F-IL4Rα …
Assay: flow cytometry on 293F-IL4Rα cells
Experimental: as §1

B5 and B6 are within 1.5-fold of each other in EC50: 0.246 nM for the first, 0.221 nM for the second.

B1 and B7 are within 1.5-fold of each other in EC50: 0.159 nM for the first, 0.183 nM for the second.

Binder B2 has an EC50 of 0.251 nM.

Biological target: T2, human IL4Rα expressed on 293F-IL4Rα …
Assay: flow cytometry on 293F-IL4Rα cells
Remark: another data set of the same source

B1 and B2 are within 1.5-fold of each other in EC50: 0.307 nM for the first, 0.412 nM for the second.

B3 and B4 are within 1.5-fold of each other in EC50: 0.775 nM for the first, 0.63 nM for the second.

Biological target: T2, human IL4Rα expressed on 293F-IL4Rα …
Assay: flow cytometry, blocks biotin-IL4 binding to 293F-IL4Rα cells
Experimental: Then, 1×10⁵ cells per well in 96 well-plates were incubated in 100 μL of the anti-IL4Rα antibodies or controls of various concentrations (starting at 80 nM with a 4-fold serial dilution) in FACS buffer for 40 minutes on ice. The plates were washed twice with FACS buffer, and added and incubated for 40 minutes at 4° C. in dark with 100 μl/well 1.67 nM biotin-labeled human IL4 protein (Sino biological inc., Cat #11846-HNAE). The plates were washed twice with FACS buffer, and then added and incubated for 40 minutes at 4° C. in dark with 100 μl/well R-Phycoerythrin Streptavidin (1:500 dilution in FACS buffer, Jackson Immunoresearch, Cat #016-110-084). Cells were washed twice and resuspended in FACS buffer. Fluorescence was measured using a Becton Dickinson FACS Canto II-HTS equipment. Data was analyzed using Graphpad Prism software and IC₅₀ values were reported.

B2 and B3 are within 1.5-fold of each other in IC50: 0.5 nM for the first, 0.36 nM for the second.

B4 was tested, and the IC50 was 0.48 nM.

Biological target: T3, recombinant human IL4Rα-his protein (in house made) (human, UniProt P24394 26-232, limits assumed)
T3 construct: also called Human IL4Ra-his
Assay: competitive ELISA, blocks biotin-IL4 binding to coated IL4Rα-his
Experimental: The activity of the anti-IL4Rα antibodies of the disclosure to block IL4-IL4Rα interaction was measured in a competitive ELISA assay. Briefly, 100 μl human IL4Rα-his proteins (prepared in-house with SEQ ID NO: 57) were coated on 96-well micro plates at 2 μg/mL in PBS overnight at 4° C. The next day, plates were washed with wash buffer (PBS+0.05% w/v Tween-20, PBST), and blocked with 5% w/v non-fatty milk in PBST for 2 hours at 37° C. Plates were then washed again using wash buffer.
(§2) Serially diluted anti-IL4Rα antibodies or the controls (starting at 80 nM with a 4-fold serial dilution) in 2.5% w/v non-fatty milk in PBST, 100 μl per well, were added to the IL4Rα bound plates, and incubated with the human IL4Rα-his proteins at 37° C. for 40 minutes. Plates were washed 4 times using wash buffer, and then added and incubated for 40 minutes at 37° C. with 100 μl/well of 0.56 nM biotin-labeled human IL4 protein (Sino biological inc., Cat #11846-HNAE). Plates were washed again using wash buffer. Thereafter, the plates were added with 100 μl/well of streptavidin conjugated HRP (1:10000 dilution in PBST buffer, Jackson Immunoresearch, Cat #016-030-084) and incubated for 40 minutes at 37° C. Plates were washed again using wash buffer. Finally, TMB was added and the reaction was stopped using 1M H₂SO₄, and the absorbance was read at 450 nm. Data was analyzed using Graphpad Prism software and IC₅₀ values were reported.

First: B5
Second: B6
The IC50 of the first is 1.6-fold lower: 1.8 nM for the first, 2.88 nM for the second. The first is the more potent here.

B1 and B7 are within 1.5-fold of each other in IC50: 0.81 nM for the first, 0.73 nM for the second.

In the case of B2, the IC50 is reported as 0.81 nM.

Biological target: T3, recombinant human IL4Rα-his protein (in …)
Assay: as above
Remark: another data set of the same source
Experimental: as §2

B2 and B3 are within 1.5-fold of each other in IC50: 1 nM for the first, 1.42 nM for the second.

With B4 the IC50 was 2.46 nM.

Biological target: T3, recombinant human IL4Rα-his protein (in …)
Assay: competitive ELISA, blocks biotin-IL4Rα-his binding to coated Benchmark (competitor)
Experimental: (§3) The ability of the anti-IL4Rα antibodies of the disclosure to block benchmark-human IL4Rα binding was measured in a competitive ELISA assay. Briefly, the benchmark was coated on 96-well micro plates at 2 μg/mL in PBS, 100 μl per well, and incubated overnight at 4° C. The next day, plates were washed with wash buffer (PBS+0.05% w/v Tween-20, PBST), and blocked with 5% w/v non-fatty milk in PBST for 2 hours at 37° C. tiring plate blocking, the anti-IL4Rα antibodies of the disclosure or controls were diluted with biotin labeled human IL4Rα-his proteins (prepared in-house with SEQ ID NO: 57, 0.55 nM in 2.5% w/v non-fatty milk in PBST), starting at 100 nM with a 4-fold serial dilution, and incubated at 25° C. for 40 minutes. After plate washing, the antibody/IL4Rα-his mixtures were added to benchmark coated plates, 100 μl per well. After incubation at 37° C. for 40 minutes, plates were washed using wash buffer. Then the plates were added and incubated with 100 μl/well streptavidin conjugated HRP for 40 minutes at 37° C. to detect biotin-labeled human IL4Rα-his bound to plates. Plates were washed again using wash buffer. Finally, TMB was added and the reaction was stopped using 1M H₂SO₄, and the absorbance was read at 450 nm. Data was analyzed using Graphpad Prism software and IC₅₀ values were reported.

B5 and B6 are the same in IC50: 0.02 nM for the first, 0.02 nM for the second.

Going from B1 to B7, the IC50 rises from 0.04 nM to 0.72 nM (18-fold). The first is the more potent here.

First: B2
Second: B3
The IC50 of the first is 76-fold lower: 0.02 nM for the first, 1.52 nM for the second.

In the case of B4, the IC50 is reported as 0.17 nM.

Biological target: T3, recombinant human IL4Rα-his protein (in …)
Assay: competitive ELISA: coated human IL4Rα-his, blocked ligand biotin human IL4

B1 and B2 are within 1.5-fold of each other in IC50: 1.89 nM for the first, 1.64 nM for the second.

First: B3
Second: B4
The IC50 of the first is 1.7-fold lower: 1.82 nM for the first, 3.12 nM for the second.

Biological target: T3, recombinant human IL4Rα-his protein (in …)
Assay: competitive ELISA: antibody mixed with biotin human IL4Rα-his, competitor plate-coated Benchmark
Experimental: as §3

B5 and B6 are within 1.5-fold of each other in IC50: 0.024 nM for the first, 0.0209 nM for the second.

Compared with B1, B7 is 19-fold higher in IC50: 0.0383 nM for the first, 0.716 nM for the second.

B2 gave an IC50 of 0.0171 nM.
